From US20250092146A1 (ABILITA BIO, published 2025)

Columns and labels:
[1] = target: T1, human CCR8 (hCCR8) (human, UniProt P51685 1-355); assay: cell-based or functional assay
[2] = target: T2, Chimera A (hCCR8 with its N-terminus replaced by amino acids 1-22 of hCCR1) (human (hCCR8/hCCR1 chimera), UniProt P51685 18-355); assay: flow cytometry (MFI), HEK293T cells expressing Chimera A (hCCR8 with hCCR1 N-terminus)
T2 construct: Transiently transfected HEK293T cells
Description: Determination of binding epitope location on hCCR8 was done for representative VHH-Fc antibodies by flow cytometry analysis using HEK293T cells expressing hCCR8 or two receptor chimeras comprised of combined sequence elements taken from hCCR8 (SEQ ID NO: 37) and hCCR1 (SEQ ID NO: 39). In the first, Chimera A based on hCCR8, the N-terminal region of the receptor (SEQ ID NO: 38) was replaced with a sequence encoding the N-terminal region of hCCR1 (SEQ ID NO: 40). In Chimera B based on hCCR1, the N-terminal region of the receptor was replaced by the sequence encoding the hCCR8 N-terminus (SEQ ID NO: 38).

[3] = target: T3, human CCR7 (hCCR7) (human, UniProt P32248 25-378); assay: flow cytometry, HEK293 cells stably expressing hCCR7, anti-VHH detection
T3 construct: HEK293 cells stably expressing hCCR7
T3 sequence: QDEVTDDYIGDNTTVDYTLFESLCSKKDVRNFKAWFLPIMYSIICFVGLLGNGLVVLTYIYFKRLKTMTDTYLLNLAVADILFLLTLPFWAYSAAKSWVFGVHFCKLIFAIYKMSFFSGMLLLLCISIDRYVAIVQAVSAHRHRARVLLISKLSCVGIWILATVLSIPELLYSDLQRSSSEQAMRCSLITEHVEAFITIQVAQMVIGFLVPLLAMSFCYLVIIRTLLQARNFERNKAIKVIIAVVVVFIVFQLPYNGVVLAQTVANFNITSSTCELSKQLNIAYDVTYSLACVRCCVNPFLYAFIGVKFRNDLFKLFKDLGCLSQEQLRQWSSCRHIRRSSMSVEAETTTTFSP
Method: Recombinant cells expressing hCCR8 were resuspended to a final concentration of 1.0×10⁶ cells/ml in FACS buffer. […] Dilutions of purified VHHs were incubated with cells for 60 min. Individual samples were distributed into 96-well v-bottom plates and incubated for one hour at 4° C. […] Binding was determined in parallel on HEK293 cells stably expressing the closely related receptor hCCR7 (SEQ ID NO: 41), as control for binding specificity.

[4] = target: T1, human CCR8 (hCCR8); assay: competition with 10 nM VHH-1-Fc, flow cytometry on HEK293-hCCR8 cells
Method: Binding studies were conducted on hCCR8 expressing cells for 60 minutes at 4° C., followed by two washes and then 30 minutes incubation at 4° C. with the Zenon R-Phycoerythrin Anti-human IgG secondary antibody (ThermoFisher Scientific, #Z-25455). Binding to cells was assessed by flow cytometry.

T1 sequence (P51685 whole entry, the tested form may be a part): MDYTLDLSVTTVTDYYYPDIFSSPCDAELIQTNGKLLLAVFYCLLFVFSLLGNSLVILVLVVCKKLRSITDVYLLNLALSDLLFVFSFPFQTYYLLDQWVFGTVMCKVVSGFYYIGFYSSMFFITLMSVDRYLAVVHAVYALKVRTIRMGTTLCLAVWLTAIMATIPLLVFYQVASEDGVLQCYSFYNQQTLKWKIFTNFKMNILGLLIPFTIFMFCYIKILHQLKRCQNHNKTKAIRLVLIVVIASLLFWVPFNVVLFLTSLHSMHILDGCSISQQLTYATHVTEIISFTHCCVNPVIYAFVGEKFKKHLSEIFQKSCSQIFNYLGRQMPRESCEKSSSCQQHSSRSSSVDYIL
T2 sequence (P51685 other isoform, or with tags, fused parts or gaps mutant): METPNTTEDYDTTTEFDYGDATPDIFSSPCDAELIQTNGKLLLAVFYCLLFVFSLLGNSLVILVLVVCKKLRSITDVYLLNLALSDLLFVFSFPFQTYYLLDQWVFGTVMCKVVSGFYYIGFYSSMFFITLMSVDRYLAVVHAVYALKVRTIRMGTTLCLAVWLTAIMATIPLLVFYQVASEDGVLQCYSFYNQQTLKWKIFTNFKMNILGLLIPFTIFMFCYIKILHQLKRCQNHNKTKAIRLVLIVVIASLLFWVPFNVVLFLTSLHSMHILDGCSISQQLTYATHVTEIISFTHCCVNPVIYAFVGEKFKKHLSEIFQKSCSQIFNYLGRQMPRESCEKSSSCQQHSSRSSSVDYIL

Binder | EC50 (nM), ADCC reporter assay, mouse FcγRIV effector cells, HuT-78 target cells [1] [nM] | Fold Induction, ADCC reporter assay, mouse FcγRIV effector cells, HuT-78 target cells [1] [fold] | further results
VHH-1.3-7-mFc (Fc fusion) EVQLVESGGGLVQPGGSLRLSCAVSGSTSSIRRIGWYRQAPGKGRELVAHFSSGGGTNYADSVKGRFTISGDKSKNTMYLQMNSLRAEDTAVYYCSARRLLGTSRVDYWGQGTTVTVSSEPRGPTIKPCPPCKCPAPNLLGGPSVFIFPPKIKDVLMISLSPIVTCVVVDVSEDDPDVQISWFVNNVEVHTAQTQTHREDYNSTLRVVSALPIQHQDWMSGKEFKCKVNNKDLPAPIERTISKPKGSVRAPQVYVLPPPEEEMTKKQVTLTCMVTDFMPEDIYVEWTNNGKTELNYKNTEPVLDSDGSYFMYSKLRVEKKNWVERNSYSCSVVHEGLHNHHTTKSFSRTPGK | 0.007 | 12 | –
VHH-1.3-20-mFc (Fc fusion) EVQLVESGGGLVQPGGSLRLSCAVSGSTSSIRGIGWYRQAPGKGRELVARFISGGGTNYADSVKGRFTISGDNSKNTMYLQMNSLRAEDTAVYYCSARILLGTSRVDYWGQGTQVTVSSEPRGPTIKPCPPCKCPAPNLLGGPSVFIFPPKIKDVLMISLSPIVTCVVVDVSEDDPDVQISWFVNNVEVHTAQTQTHREDYNSTLRVVSALPIQHQDWMSGKEFKCKVNNKDLPAPIERTISKPKGSVRAPQVYVLPPPEEEMTKKQVTLTCMVTDFMPEDIYVEWTNNGKTELNYKNTEPVLDSDGSYFMYSKLRVEKKNWVERNSYSCSVVHEGLHNHHTTKSFSRTPGK | 0.345 | 9.74 | –
VHH-1.3-21-mFc (Fc fusion) EVQLVESGGGLVQPGGSLRLSCAVSGSTSSIRGIGWYRQAPGKGRELVARFISGGGTNYADSVKGRFTISADNSKNTMYLQMNSLRAEDTAVYYCSARRLLGTSRVDYWGQGTQVTVSSEPRGPTIKPCPPCKCPAPNLLGGPSVFIFPPKIKDVLMISLSPIVTCVVVDVSEDDPDVQISWFVNNVEVHTAQTQTHREDYNSTLRVVSALPIQHQDWMSGKEFKCKVNNKDLPAPIERTISKPKGSVRAPQVYVLPPPEEEMTKKQVTLTCMVTDFMPEDIYVEWTNNGKTELNYKNTEPVLDSDGSYFMYSKLRVEKKNWVERNSYSCSVVHEGLHNHHTTKSFSRTPGK | 0.042 | 11.4 | –
VHH-1.3-19-mFc (Fc fusion) EVQLVESGGGLVQPGGSLRLSCAVSGSTSSIRGIGWYRQAPGKGRELVAHFSSGGGTNYADSVKGRFTISGDKSKNTMYLQMNSLRAEDTAVYYCSARRLLGTSRVDYWGQGTQVTVSSEPRGPTIKPCPPCKCPAPNLLGGPSVFIFPPKIKDVLMISLSPIVTCVVVDVSEDDPDVQISWFVNNVEVHTAQTQTHREDYNSTLRVVSALPIQHQDWMSGKEFKCKVNNKDLPAPIERTISKPKGSVRAPQVYVLPPPEEEMTKKQVTLTCMVTDFMPEDIYVEWTNNGKTELNYKNTEPVLDSDGSYFMYSKLRVEKKNWVERNSYSCSVVHEGLHNHHTTKSFSRTPGK | 0.024 | 11.3 | –
BMS-4A19 (antibody, human IgG1, kappa, Comparator from WO2021194942A1, made in HEK293 cells) heavy: not shown light: DIVMTQTPLSLSVTPGQPASISCRSSQSLFHSSGNTYLHWYLQKPGQPPQLLIYKVSNRFSGVPDRFSGSGSGTDFTLKISRVEAEDVGVYYCSQSTHVPFTFGQGTKLEIKRTVAAPSVFIFPPSDEQLKSGTASVVCLLNNFYPREAKVQWKVDNALQSGNSQESVTEQDSKDSTYSLSSTLTLSKADYEKHKVYACEVTHQGLSSPVTKSFNRGEC | – | – | binding result [2]: no binding
VHH-1-mFc (Fc fusion) QVQLQESGGGLVQAGGSLRLSCVASGSTSSIRRIGWYRQAPGKQRELVARFSSGGGTNYADFVKGRFTISGDNAKNTMYLQMNSLKPEDTAVYYCSARRLLGTSRVDYWGQGTQVTVSSEPRGPTIKPCPPCKCPAPNLLGGPSVFIFPPKIKDVLMISLSPIVTCVVVDVSEDDPDVQISWFVNNVEVHTAQTQTHREDYNSTLRVVSALPIQHQDWMSGKEFKCKVNNKDLPAPIERTISKPKGSVRAPQVYVLPPPEEEMTKKQVTLTCMVTDFMPEDIYVEWTNNGKTELNYKNTEPVLDSDGSYFMYSKLRVEKKNWVERNSYSCSVVHEGLHNHHTTKSFSRTPGK | 0.015 | 12 | –
VHH-1 (VHH, not shown: small tags and cut ends, Monovalent VHH purified from E. coli periplasm (PelB signal peptide)) VHH: QVQLQESGGGLVQAGGSLRLSCVASGSTSSIRRIGWYRQAPGKQRELVARFSSGGGTNYADFVKGRFTISGDNAKNTMYLQMNSLKPEDTAVYYCSARRLLGTSRVDYWGQGTQVTVSS | – | – | binding result [3]: no binding
VHH-3 (VHH, not shown: small tags and cut ends, Monovalent VHH purified from E. coli periplasm (PelB signal peptide)) VHH: QVQLQESGGGLVQAGGSLRLSCVASGSTSSIRRIGWYRQAPGKQRELVARFSSGGGTNYADFVKGRFTISGDNAKNTMYLQMNSLKPEDTAVYYCGARRLLGTSRVDYWGQGTQVTVSS | – | – | binding result [3]: no binding
CCL1 (ligand, UniProt P22362 24-96, looked up, also called hCCR8 agonist CCL1) KSMQVPFSRCCFSFAEQEIPLRAILCYRNTSSICSNEGLIFKLKRGKEACALDTVGWVQRHRKMLRHCPSKRK | – | – | binding result [4]: binds
